This note sets out measurements from publication PMC8775250, “Cryo-EM Structure of the Rhodobacter sphaeroides Light-Harvesting 2 Complex at 2.1 Å” (Biochemistry, 2021).

Sequences and labels used below:
B1: LH2 β-polypeptide of the Rhodobacter sphaeroides light-harvesting 2 (LH2) complex (natural protein)
chain: not shown
notes: Gly51 is the C-terminus; N-terminal, transmembrane and C-terminal regions of 14, 32 and 5 residues; nine copies form the outer ring
B2: LH2 α-polypeptide of the Rhodobacter sphaeroides light-harvesting 2 (LH2) complex (natural protein, Rhodobacter sphaeroides 2.4.1, UniProt Q3J144 1-54, looked up)
chain: carboxyl-MTNGKIWLVVKPTVGVPLFLSAAVIASVVIHAAVLTTTTWLPAYYQGSAAVAAE
notes: Met1 is the N-terminus in the structure; nine copies form the inner ring; also called α-apoprotein

In data set [1] the target is B2. Nature of the data set: cryo-EM structure; single-particle cryo-EM of the LH2 complex purified from membranes in 20 mM HEPES pH 7.8 with 0.1% LDAO; C9 symmetry imposed; 2.1 Å. The note with it: both partners purified.
Data set [2] concerns the molecule itself. Described as above.

Ends that are not written are not given here.

For orientation: stoichiometry N means a count of units in the complex or per binding partner. As for B1, the binding result in data set [1] is on record as “binds”. Besides, the “stoichiometry N” value in data set [2] is 9. Regarding B2, the “stoichiometry N” value in data set [2] was found to be 9.
